Binding signal (MFI) data for one molecule are collected here from US20220356230A1.

The experiment addresses SARS-CoV-2 Spike Protein (RBD)(R319-F541).mmH, unmodified (SARS-CoV-2). Nature of the experiment: Luminex, supernatant on bead-coupled RBD.mmH. Particulars: remark: other sources report otherwise.

B1: mAb11006 (antibody, V domains shown)
VH: EVQLVESGGGLVQPGGSLRLSCAASGFIVSRNYMSWVRQAPGKGLEWVSVIYSGGSTFYADSVKGRFTISRHNSKNTLYLQMNSLKAEDTAVYYCARELRGYFDYWGQGTLVTVSS
VL: DIQLTQSPSFLSASVGDRVTITCWASQGISSYLAWYQQKPGKAPKLLIYAASTLQSGVPSRFSGSGSGTEFTLTISSLQPEDFATYYCQLLNSYPYTFGQGTKLEIK
Regarding B1, the Binding signal (MFI) was determined as 2040 MFI.
